Data as given in the supplement of paper PMC10266784.

B1: library; numbered along this chain (parent)
chain: MAAAAAAAAEQQSSNGPVKKSMREKAVERRSVNKEHNSNFKAGYIPIDEDRLHKTGLRGRKGNLAICVIILLFILAVINLIITLVIWAVIRIGPNGCDSMEFHESGLLRFKQVSDMGVIHPLYKSTVGGRRNENLVITGNNQPIVFQQGTTKLSVENNKTSITSDIGMQFFDPRTQNILFSTDYETHEFHLPSGVKSLNVQKASTERITSNATSDLNIKVDGRAIVRGNEGVFIMGKTIEFHMGGNMELKAENSIILNGSVMVSTTRLPSSSSGDQLGSGDWVRYKLCMCADGTLFKVQVTSQNMGCQISDNPCGNTH

Variants of: B1
Experiment: SGCB cell-surface expression functional score (HA stain, bin4 vs bin1, normalised to synonymous) (log10 ratio); higher = more cell-surface SGCB (functional)
Outline: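 Using lentivirus at MOI <0.1, HA-tagged, YFP-fused human beta-sarcoglycan codon-saturation libraries were put into HEK293 cells with stable alpha-, gamma- and delta-sarcoglycan expression, in duplicate transductions. YFP-positive cells were collected by sorting 72 hours later, grown 5–7 days, stained on ice with Alexa Fluor 647 anti-HA, fixed, sorted into four 5% intensity bins and amplicon-sequenced. The functional score takes the median, across codons and transductions, of the log ratio of highest-bin to lowest-bin variant frequency. Within each section, synonymous variants were scaled to mean 0, SD 0.5.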

Variant	SGCB cell-surface expression functional score (log10)
MAAAAAAAAEQQSSNGPVKKSMREKAVERRSVNKEHNSNFKAGYIPIDEDRLHKTGLRGRKGNLAICVIILLFILAVINLIITLVIWAVIRIGPNGCDSMEFHESGLLRFKQVSDMGVIHPLYKSTVGGRRNENLVITCNNQPIVFQQGTTKLSVENNKTSITSDIGMQFFDPRTQNILFSTDYETHEFHLPSGVKSLNVQKASTERITSNATSDLNIKVDGRAIVRGNEGVFIMGKTIEFHMGGNMELKAENSIILNGSVMVSTTRLPSSSSGDQLGSGDWVRYKLCMCADGTLFKVQVTSQNMGCQISDNPCGNTH [G139C]	-0.65
MAAAAAAAAEQQSSNGPVKKSMREKAVERRSVNKEHNSNFKAGYIPIDEDRLHKTGLRGRKGNLAICVIILLFILAVINLIITLVIWAVIRIGPNGCDSMEFHESGLLRFKQVSDMGVIHPLYKSTVGGRRNENLVITLNNQPIVFQQGTTKLSVENNKTSITSDIGMQFFDPRTQNILFSTDYETHEFHLPSGVKSLNVQKASTERITSNATSDLNIKVDGRAIVRGNEGVFIMGKTIEFHMGGNMELKAENSIILNGSVMVSTTRLPSSSSGDQLGSGDWVRYKLCMCADGTLFKVQVTSQNMGCQISDNPCGNTH [G139L]	-1.18
MAAAAAAAAEQQSSNGPVKKSMREKAVERRSVNKEHNSNFKAGYIPIDEDRLHKTGLRGRKGNLAICVIILLFILAVINLIITLVIWAVIRIGPNGCDSMEFHESGLLRFKQVSDMGVIHPLYKSTVGGRRNENLVITFNNQPIVFQQGTTKLSVENNKTSITSDIGMQFFDPRTQNILFSTDYETHEFHLPSGVKSLNVQKASTERITSNATSDLNIKVDGRAIVRGNEGVFIMGKTIEFHMGGNMELKAENSIILNGSVMVSTTRLPSSSSGDQLGSGDWVRYKLCMCADGTLFKVQVTSQNMGCQISDNPCGNTH [G139F]	-1.58
MAAAAAAAAEQQSSNGPVKKSMREKAVERRSVNKEHNSNFKAGYIPIDEDRLHKTGLRGRKGNLAICVIILLFILAVINLIITLVIWAVIRIGPNGCDSMEFHESGLLRFKQVSDMGVIHPLYKSTVGGRRNENLVITANNQPIVFQQGTTKLSVENNKTSITSDIGMQFFDPRTQNILFSTDYETHEFHLPSGVKSLNVQKASTERITSNATSDLNIKVDGRAIVRGNEGVFIMGKTIEFHMGGNMELKAENSIILNGSVMVSTTRLPSSSSGDQLGSGDWVRYKLCMCADGTLFKVQVTSQNMGCQISDNPCGNTH [G139A]	-0.13
MAAAAAAAAEQQSSNGPVKKSMREKAVERRSVNKEHNSNFKAGYIPIDEDRLHKTGLRGRKGNLAICVIILLFILAVINLIITLVIWAVIRIGPNGCDSMEFHESGLLRFKQVSDMGVIHPLYKSTVGGRRNENLVITHNNQPIVFQQGTTKLSVENNKTSITSDIGMQFFDPRTQNILFSTDYETHEFHLPSGVKSLNVQKASTERITSNATSDLNIKVDGRAIVRGNEGVFIMGKTIEFHMGGNMELKAENSIILNGSVMVSTTRLPSSSSGDQLGSGDWVRYKLCMCADGTLFKVQVTSQNMGCQISDNPCGNTH [G139H]	-1.79
MAAAAAAAAEQQSSNGPVKKSMREKAVERRSVNKEHNSNFKAGYIPIDEDRLHKTGLRGRKGNLAICVIILLFILAVINLIITLVIWAVIRIGPNGCDSMEFHESGLLRFKQVSDMGVIHPLYKSTVGGRRNENLVITINNQPIVFQQGTTKLSVENNKTSITSDIGMQFFDPRTQNILFSTDYETHEFHLPSGVKSLNVQKASTERITSNATSDLNIKVDGRAIVRGNEGVFIMGKTIEFHMGGNMELKAENSIILNGSVMVSTTRLPSSSSGDQLGSGDWVRYKLCMCADGTLFKVQVTSQNMGCQISDNPCGNTH [G139I]	-0.91
MAAAAAAAAEQQSSNGPVKKSMREKAVERRSVNKEHNSNFKAGYIPIDEDRLHKTGLRGRKGNLAICVIILLFILAVINLIITLVIWAVIRIGPNGCDSMEFHESGLLRFKQVSDMGVIHPLYKSTVGGRRNENLVITENNQPIVFQQGTTKLSVENNKTSITSDIGMQFFDPRTQNILFSTDYETHEFHLPSGVKSLNVQKASTERITSNATSDLNIKVDGRAIVRGNEGVFIMGKTIEFHMGGNMELKAENSIILNGSVMVSTTRLPSSSSGDQLGSGDWVRYKLCMCADGTLFKVQVTSQNMGCQISDNPCGNTH [G139E]	-0.91
MAAAAAAAAEQQSSNGPVKKSMREKAVERRSVNKEHNSNFKAGYIPIDEDRLHKTGLRGRKGNLAICVIILLFILAVINLIITLVIWAVIRIGPNGCDSMEFHESGLLRFKQVSDMGVIHPLYKSTVGGRRNENLVITMNNQPIVFQQGTTKLSVENNKTSITSDIGMQFFDPRTQNILFSTDYETHEFHLPSGVKSLNVQKASTERITSNATSDLNIKVDGRAIVRGNEGVFIMGKTIEFHMGGNMELKAENSIILNGSVMVSTTRLPSSSSGDQLGSGDWVRYKLCMCADGTLFKVQVTSQNMGCQISDNPCGNTH [G139M]	-1.05
MAAAAAAAAEQQSSNGPVKKSMREKAVERRSVNKEHNSNFKAGYIPIDEDRLHKTGLRGRKGNLAICVIILLFILAVINLIITLVIWAVIRIGPNGCDSMEFHESGLLRFKQVSDMGVIHPLYKSTVGGRRNENLVITNNNQPIVFQQGTTKLSVENNKTSITSDIGMQFFDPRTQNILFSTDYETHEFHLPSGVKSLNVQKASTERITSNATSDLNIKVDGRAIVRGNEGVFIMGKTIEFHMGGNMELKAENSIILNGSVMVSTTRLPSSSSGDQLGSGDWVRYKLCMCADGTLFKVQVTSQNMGCQISDNPCGNTH [G139N]	0.52
MAAAAAAAAEQQSSNGPVKKSMREKAVERRSVNKEHNSNFKAGYIPIDEDRLHKTGLRGRKGNLAICVIILLFILAVINLIITLVIWAVIRIGPNGCDSMEFHESGLLRFKQVSDMGVIHPLYKSTVGGRRNENLVITDNNQPIVFQQGTTKLSVENNKTSITSDIGMQFFDPRTQNILFSTDYETHEFHLPSGVKSLNVQKASTERITSNATSDLNIKVDGRAIVRGNEGVFIMGKTIEFHMGGNMELKAENSIILNGSVMVSTTRLPSSSSGDQLGSGDWVRYKLCMCADGTLFKVQVTSQNMGCQISDNPCGNTH [G139D]	-0.84
MAAAAAAAAEQQSSNGPVKKSMREKAVERRSVNKEHNSNFKAGYIPIDEDRLHKTGLRGRKGNLAICVIILLFILAVINLIITLVIWAVIRIGPNGCDSMEFHESGLLRFKQVSDMGVIHPLYKSTVGGRRNENLVITKNNQPIVFQQGTTKLSVENNKTSITSDIGMQFFDPRTQNILFSTDYETHEFHLPSGVKSLNVQKASTERITSNATSDLNIKVDGRAIVRGNEGVFIMGKTIEFHMGGNMELKAENSIILNGSVMVSTTRLPSSSSGDQLGSGDWVRYKLCMCADGTLFKVQVTSQNMGCQISDNPCGNTH [G139K]	-1.52
MAAAAAAAAEQQSSNGPVKKSMREKAVERRSVNKEHNSNFKAGYIPIDEDRLHKTGLRGRKGNLAICVIILLFILAVINLIITLVIWAVIRIGPNGCDSMEFHESGLLRFKQVSDMGVIHPLYKSTVGGRRNENLVINGNNQPIVFQQGTTKLSVENNKTSITSDIGMQFFDPRTQNILFSTDYETHEFHLPSGVKSLNVQKASTERITSNATSDLNIKVDGRAIVRGNEGVFIMGKTIEFHMGGNMELKAENSIILNGSVMVSTTRLPSSSSGDQLGSGDWVRYKLCMCADGTLFKVQVTSQNMGCQISDNPCGNTH [T138N]	0.54
MAAAAAAAAEQQSSNGPVKKSMREKAVERRSVNKEHNSNFKAGYIPIDEDRLHKTGLRGRKGNLAICVIILLFILAVINLIITLVIWAVIRIGPNGCDSMEFHESGLLRFKQVSDMGVIHPLYKSTVGGRRNENLVIVGNNQPIVFQQGTTKLSVENNKTSITSDIGMQFFDPRTQNILFSTDYETHEFHLPSGVKSLNVQKASTERITSNATSDLNIKVDGRAIVRGNEGVFIMGKTIEFHMGGNMELKAENSIILNGSVMVSTTRLPSSSSGDQLGSGDWVRYKLCMCADGTLFKVQVTSQNMGCQISDNPCGNTH [T138V]	0.19
MAAAAAAAAEQQSSNGPVKKSMREKAVERRSVNKEHNSNFKAGYIPIDEDRLHKTGLRGRKGNLAICVIILLFILAVINLIITLVIWAVIRIGPNGCDSMEFHESGLLRFKQVSDMGVIHPLYKSTVGGRRNENLVISGNNQPIVFQQGTTKLSVENNKTSITSDIGMQFFDPRTQNILFSTDYETHEFHLPSGVKSLNVQKASTERITSNATSDLNIKVDGRAIVRGNEGVFIMGKTIEFHMGGNMELKAENSIILNGSVMVSTTRLPSSSSGDQLGSGDWVRYKLCMCADGTLFKVQVTSQNMGCQISDNPCGNTH [T138S]	0.4
MAAAAAAAAEQQSSNGPVKKSMREKAVERRSVNKEHNSNFKAGYIPIDEDRLHKTGLRGRKGNLAICVIILLFILAVINLIITLVIWAVIRIGPNGCDSMEFHESGLLRFKQVSDMGVIHPLYKSTVGGRRNENLVIPGNNQPIVFQQGTTKLSVENNKTSITSDIGMQFFDPRTQNILFSTDYETHEFHLPSGVKSLNVQKASTERITSNATSDLNIKVDGRAIVRGNEGVFIMGKTIEFHMGGNMELKAENSIILNGSVMVSTTRLPSSSSGDQLGSGDWVRYKLCMCADGTLFKVQVTSQNMGCQISDNPCGNTH [T138P]	-1
MAAAAAAAAEQQSSNGPVKKSMREKAVERRSVNKEHNSNFKAGYIPIDEDRLHKTGLRGRKGNLAICVIILLFILAVINLIITLVIWAVIRIGPNGCDSMEFHESGLLRFKQVSDMGVIHPLYKSTVGGRRNENLVIYGNNQPIVFQQGTTKLSVENNKTSITSDIGMQFFDPRTQNILFSTDYETHEFHLPSGVKSLNVQKASTERITSNATSDLNIKVDGRAIVRGNEGVFIMGKTIEFHMGGNMELKAENSIILNGSVMVSTTRLPSSSSGDQLGSGDWVRYKLCMCADGTLFKVQVTSQNMGCQISDNPCGNTH [T138Y]	-0.33
MAAAAAAAAEQQSSNGPVKKSMREKAVERRSVNKEHNSNFKAGYIPIDEDRLHKTGLRGRKGNLAICVIILLFILAVINLIITLVIWAVIRIGPNGCDSMEFHESGLLRFKQVSDMGVIHPLYKSTVGGRRNENLVIRGNNQPIVFQQGTTKLSVENNKTSITSDIGMQFFDPRTQNILFSTDYETHEFHLPSGVKSLNVQKASTERITSNATSDLNIKVDGRAIVRGNEGVFIMGKTIEFHMGGNMELKAENSIILNGSVMVSTTRLPSSSSGDQLGSGDWVRYKLCMCADGTLFKVQVTSQNMGCQISDNPCGNTH [T138R]	-0.08
MAAAAAAAAEQQSSNGPVKKSMREKAVERRSVNKEHNSNFKAGYIPIDEDRLHKTGLRGRKGNLAICVIILLFILAVINLIITLVIWAVIRIGPNGCDSMEFHESGLLRFKQVSDMGVIHPLYKSTVGGRRNENLVIQGNNQPIVFQQGTTKLSVENNKTSITSDIGMQFFDPRTQNILFSTDYETHEFHLPSGVKSLNVQKASTERITSNATSDLNIKVDGRAIVRGNEGVFIMGKTIEFHMGGNMELKAENSIILNGSVMVSTTRLPSSSSGDQLGSGDWVRYKLCMCADGTLFKVQVTSQNMGCQISDNPCGNTH [T138Q]	-0.47
MAAAAAAAAEQQSSNGPVKKSMREKAVERRSVNKEHNSNFKAGYIPIDEDRLHKTGLRGRKGNLAICVIILLFILAVINLIITLVIWAVIRIGPNGCDSMEFHESGLLRFKQVSDMGVIHPLYKSTVGGRRNENLVIWGNNQPIVFQQGTTKLSVENNKTSITSDIGMQFFDPRTQNILFSTDYETHEFHLPSGVKSLNVQKASTERITSNATSDLNIKVDGRAIVRGNEGVFIMGKTIEFHMGGNMELKAENSIILNGSVMVSTTRLPSSSSGDQLGSGDWVRYKLCMCADGTLFKVQVTSQNMGCQISDNPCGNTH [T138W]	0.68
